Experimental findings from patent publication EP0765166B1, “RADIOLABELED ANNEXIN-GALACTOSE CONJUGATES” (NEORX CORPORATION, priority 1994, dated 1995) are described below.

The conditions of this series: in vivo, iv. How it is done: • A. Animal Preparation - LA Vascular Thrombi. Fasting 25-30 kg Yorkshire swine were sedated with intramuscular Telazol (5-10 mg/kg) (commercially available from AVECO Co.) and commercially available Atropine (1 mg, Elkins-Sinn, Inc., Cherry Hill, NJ). Surital (200 mg) (commercially available from Abbott Laboratories) anaesthesia was administered intravenously. The animals were intubated and given inhalation anaesthesia of 1.5-2% halothane (commercially available from Abbott Laboratories) and O2 sufficient to obtain a deep level of anesthesia and physiologic arterial blood gases. Continuous electrocardiographic monitoring was instituted using alligator clip electrodes. A cut down in the neck region was conducted, and an 8 french catheter (USCI Co, Billerica, MA) was placed in the right common carotid artery for blood pressure and arterial blood gas monitoring as well as for blood sampling. The swine were placed in a right lateral decubitus position, and a lateral thoracotomy was performed to expose the heart. The incision was held open by a thoracotomy retractor. The pericardium was opened, and the left atrial appendage was isolated from the left atrium by a vascular cross- clamp. Rubber tipped forceps were used to gently crush the appendage. Five minutes later, ricinoleate (1 mg, ICN Pharmaceuticals, Costa Mesa, CA) and thrombin ([…], Johnson and Johnson Co., Arlington, Texas) were injected into the LAA (left atrial appendage) using a 27 Ga needle. The cross-clamp was removed 10 minutes later. One hour after the crush injury, Tc-99m-annexin V, prepared in accordance with Example I above, was administered as an intravenous bolus dose in an ear vein. The intravenous line was then flushed with saline. In 7 animals, I-125 labeled ovalbumin was administered as a non-specific control preparable, for example, by the procedure described by Fraker et al., Biochem. Biophys. Res. Commun. 80: 849-57, 1978). Briefly, I-125-radiolabeled ovalbumin was prepared by the Iodogen method, employing 600 µg ovalbumin (Sigma Chemical Co., St. Louis, Missouri) and NaI-125 (2mCi, 0.92 nmol). Image acquisition was performed as described below. At the end of the experimental procedure (generally about 150 minutes), the animals were sacrificed by an intravenous bolus dose of 80 mEq of KCl while the animals were still under general anaesthetic. A final blood sample was taken for well counting. The heart was rapidly excised, washed free of blood and dissected into samples for well counting. Additional samples of carotid artery, lung, liver, spleen, muscle and kidney were obtained in some animals. • B. Controls. Five different types of controls were used: open chest sham; closed chest sham; ovalbumin; indium platelets; and non-specific Tc-99m-labeled antibody. • 1. Open Chest Sham. […]

In the case of “Tc-99m-annexin V: Annexin V radiolabeled with Tc-99m by using a diamide dimercaptide N2S2 chelate (Comparative Example I)”, the a result is recorded as “a = 0.0389 %ID/g”, the b result was “b = 0.0300 %ID/g”, the t1/2 a result is “t1/2 a = 9.6 min” and the t1/2 b result is on record as “t1/2 b = 46 min”.
